These results are taken from US20230242610A1.

In one experiment the target is TMEM16A-GFP (mouse) (UniProt Q8BHY3). Briefly: SiMPull, GFP photobleaching step count (stoichiometry).
The next experiment deals with mTMEM16A (mouse) (UniProt Q8BHY3). Briefly: cell-based or functional assay.
mTMEM16A (mouse), sequence (Q8BHY3 whole entry): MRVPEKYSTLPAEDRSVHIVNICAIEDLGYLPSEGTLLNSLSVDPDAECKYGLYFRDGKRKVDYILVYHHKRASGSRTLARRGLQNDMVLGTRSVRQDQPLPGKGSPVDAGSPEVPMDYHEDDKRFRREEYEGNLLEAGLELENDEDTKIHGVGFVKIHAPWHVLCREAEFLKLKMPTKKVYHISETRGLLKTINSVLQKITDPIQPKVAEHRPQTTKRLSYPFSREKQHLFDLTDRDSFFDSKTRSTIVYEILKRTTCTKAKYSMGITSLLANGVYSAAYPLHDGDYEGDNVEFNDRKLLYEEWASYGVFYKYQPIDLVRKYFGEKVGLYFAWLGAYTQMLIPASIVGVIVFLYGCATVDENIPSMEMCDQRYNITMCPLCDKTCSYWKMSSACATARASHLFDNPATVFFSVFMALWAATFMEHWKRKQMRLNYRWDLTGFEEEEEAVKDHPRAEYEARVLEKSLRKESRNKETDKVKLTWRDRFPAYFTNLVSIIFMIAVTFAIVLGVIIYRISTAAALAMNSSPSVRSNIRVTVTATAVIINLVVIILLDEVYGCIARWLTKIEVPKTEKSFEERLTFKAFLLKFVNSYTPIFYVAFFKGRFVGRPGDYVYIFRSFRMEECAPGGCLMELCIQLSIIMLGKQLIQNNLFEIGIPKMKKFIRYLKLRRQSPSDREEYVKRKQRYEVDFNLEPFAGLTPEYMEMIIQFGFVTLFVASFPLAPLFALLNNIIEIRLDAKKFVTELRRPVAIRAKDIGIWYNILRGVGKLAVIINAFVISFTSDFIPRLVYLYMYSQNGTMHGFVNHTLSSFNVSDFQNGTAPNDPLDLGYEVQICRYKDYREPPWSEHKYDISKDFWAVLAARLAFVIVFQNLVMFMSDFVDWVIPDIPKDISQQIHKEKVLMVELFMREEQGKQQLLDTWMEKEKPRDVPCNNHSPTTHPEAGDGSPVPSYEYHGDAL

Regarding HA-KCNE1 (from UniProt P15382 1-129), in the experiment with TMEM16A-GFP (mouse), the share of pulled-down spots with one-step photobleaching of TMEM16A-GFP came to 20%, the share of pulled-down spots with three-step photobleaching of TMEM16A-GFP was determined as 10% and the share of pulled-down spots with two-step photobleaching of TMEM16A-GFP was 70%. As to KCNE1S38G (from UniProt P15382 1-129), the current density at +100 mV, HEK293T co-expressing TMEM16A and KCNE1 S38G with mTMEM16A (mouse) is 6.96 pA/pF. In the case of KCNE1ΔNt (from UniProt P15382 43-129), the current density at +100 mV, HEK293T co-expressing TMEM16A and KCNE1ΔNt in the experiment with mTMEM16A (mouse) is 6.56 pA/pF.

For the substance hKCNE1 (from UniProt P15382 1-129), in the experiment with mTMEM16A (mouse), the current density at +100 mV with 1 mM BAPTA, HEK293T, TMEM16A co-expressed with KCNE1 (against TMEM16A alone) came to 22 pA/pF and the current density at +100 mV, whole-cell patch clamp, HEK293T co-expressing both proteins worked out at 18.1 pA/pF. Substance KCNE1ΔNt30 (from UniProt P15382 30-129) came in with a current density at +100 mV, HEK293T co-expressing TMEM16A and KCNE1ΔNt30 with mTMEM16A (mouse) of 25.2 pA/pF. With KCNE1ΔCt (from UniProt P15382 1-66), the current density at +100 mV, HEK293T co-expressing TMEM16A and KCNE1ΔCt in the experiment with mTMEM16A (mouse) stood at 25 pA/pF. For KCNE1 T7I (from UniProt P15382 1-129), the current density at +100 mV, HEK293T co-expressing TMEM16A and KCNE1 T7I with mTMEM16A (mouse) turned out to be 24.7 pA/pF. The substance KCNE1ΔNt16 (from UniProt P15382 16-129) gave a current density at +100 mV, HEK293T co-expressing TMEM16A and KCNE1ΔNt16 in the experiment with mTMEM16A (mouse) of 25.4 pA/pF.
